Data published in paper PMC9246220.

Biological target: AphB C235S-His6 (Vibrio cholerae, UniProt Q9KT56 1-299, C235S)
Test: EMSA; 0-2 uM protein; affinity similar to wild type; 20 nM DNA, 10 mM Tris-HCl pH 7.5, 1 mM EDTA, 50 mM KCl, 100 ug/ml BSA, 10 ug/ml poly dI-dC, 100 mM DTT when indicated; 20 min at 25 C; 5% PAGE in 0.5X TAE
Details: protein: recombinant; chain copies: 2; label: 5'-biotin; blunt

Binder | binding result
tcpP promoter probe (dsDNA) DNA 1: GCAATTAAGTTCTCATTATCAACTGCAGAATTAGATTGCAAATAATTATATTAAAAAAAA DNA 2: TTTTTTTTAATATAATTATTTGCAATCTAATTCTGCAGTTGATAATGAGAACTTAATTGC | binds
hmpA promoter probe (dsDNA) DNA 1: CAATAAATTAGGTTTTGGCATGCAATCTGCTCATTAAGAAGGCTTGTGTAGAGTGGCTCA DNA 2: TGAGCCACTCTACACAAGCCTTCTTAATGAGCAGATTGCATGCCAAAACCTAATTTATTG | binds
